According to publication PMC2175121:

Target: cell-surface GalNAcPTase (chicken (endogenous in E9 chick retina cells))

Full-length neurocan fusion protein (RP) (natural protein)
inhibition of N-cadherin-mediated adhesion of E9 retina cells, RP at 20 μg/ml: 60%
